Results on four molecules are retold here after patent publication US20250074957A1 (GENERAL HOSPITAL, published 2025).

The chains are these.
B1: minCRBN3-NLuc (other, not shown: large carriers)
chain: AGEGDQQDAAHNMGNHLPLLPESEEEDEMEVEDQDSKEAKKPNIINFDTSLPTSHTYLGADMEEFHGRTLHDDDSCQVIPVLPQVMMILIPGQTLPLQLFHPQEVSMVRNLIQKDRTFAVLAYSNVQEREAQFGTTAEIYAYREEQDFGIEIVKVKAIGRQRFKVLELRTQSDGIQQAKVQILPECVLPSTYDAETLMDRIKKQLREWDENLKDDSLPSNPIDFSYRVAACLPIDDVLRIQLLKIGSAIQRLRCELDIMNKCTSLCCKQCQETEITTKNEIFSLSLCGPMAAYVNPHGYVHETLTVYKACNLNLIGRPSTEHSWFPGYAWTVAQCKICASHIGWKFTATKKDMSPQKFWGLTRSALLPTIPDTEDEISPDKVILCL
notes: also called CRBNΔ3; cytosolic (untethered) minCRBN
B2: CRBN (wild-type; endogenous in Jurkat/293T cells or re-expressed in 293T-CRBNΔe5 cells) (other)
chain: MAGEGDQQDAAHNMGNHLPLLPAESEEEDEMEVEDQDSKEAKKPNIINFDTSLPTSHTYLGADMEEFHGRTLHDDDSCQVIPVLPQVMMILIPGQTLPLQLFHPQEVSMVRNLIQKDRTFAVLAYSNVQEREAQFGTTAEIYAYREEQDFGIEIVKVKAIGRQRFKVLELRTQSDGIQQAKVQILPECVLPSTMSAVQLESLNKCQIFPSKPVSREDQCSYKWWQKYQKRKFHCANLTSWPRWLYSLYDAETLMDRIKKQLREWDENLKDDSLPSNPIDFSYRVAACLPIDDVLRIQLLKIGSAIQRLRCELDIMNKCTSLCCKQCQETEITTKNEIFSLSLCGPMAAYVNPHGYVHETLTVYKACNLNLIGRPSTEHSWFPGYAWTVAQCKICASHIGWKFTATKKDMSPQKFWGLTRSALLPTIPDTEDEISPDKVILCL
B3: IKZF3 degron polypeptide, amino acids 130-189 A153M (HaloTag fusion for BRET) (other, not shown: large carriers)
chain: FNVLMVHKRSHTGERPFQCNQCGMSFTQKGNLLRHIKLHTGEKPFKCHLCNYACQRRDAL
notes: also called IKZF3 A153M; A153M-substituted form of the IKZF3 degron
B4: CRBN-Nanoluciferase (NLuc) (other, not shown: large carriers)
chain: B2 chain
notes: Expressed inside transfected 293T cells for NanoBRET (intracellular, not on the surface); also called wild-type CRBN; wtCRBN

For one assay, the target named is T1, IKZF3aa130-189-HaloTag (Homo sapiens, UniProt A2VDW9 130-189 (bovine entry)).
T1 construct: Expressed in transfected 293T cells for NanoBRET; labelled with HaloTag NanoBRET 618 ligand; also called IKZF3 degron; degron
T1 sequence (A2VDW9 130-189): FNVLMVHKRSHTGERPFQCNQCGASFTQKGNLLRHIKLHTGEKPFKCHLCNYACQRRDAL
Nature of the assay: NanoBRET in 293T-CRBNΔe5 cells, pomalidomide dose-response; the Kd is a pomalidomide concentration. As for the experimental part: (§1) Cells were then trypsinized and seeded into 96 well plates, at 40,000 cells per well. The BRET assay was performed per manufacturer's instructions (Promega™). In brief, cells were incubated for 2 hours with varying concentrations of Pomalidomide or DMSO, 10 μM MG132, and 100 nM HaloTag NanoBRET 618 Ligand. NanoBRET Nano-Glo substrate was added and donor (460 nm) and acceptor (618 nm) emission were measured within 10 minutes (EnVision, Perkin Elmer). Mean corrected milliBRET units (mBU) was calculated.

Assay [1] has as its target IKZF3 degron-eGFP fusion (IKZF3 degron-GFP-IRES-mCherry reporter) (Homo sapiens, UniProt A2VDW9 130-189 (bovine entry)). Nature of the assay: cell-based or functional assay.
Assay [2] addresses CD28-CD3z-IKZF3 (eGFP fusion). Nature of the assay: cell-based or functional assay.
The target of another assay is CD28-IKZF3 (eGFP fusion). Nature of the assay: cell-based or functional assay.
The target in assay [3] is B4. Description: NanoBRET across a range of pomalidomide concentrations. As for the experimental part:
as §1

IKZF3 degron-eGFP fusion (IKZF3 degron-GFP-IRES-mCherry reporter), sequence (A2VDW9 130-189): as above

Turning to B1, the “apparent Kd (pomalidomide-dependent dimerization)” value with IKZF3aa130-189-HaloTag is 30 nM. As to B2, the entries for the “EC50 of pomalidomide-dependent degradation (eGFP/mCherry ratio normalized to DMSO), Jurkat T cells” value (in assay [1]; in assay [2]; in the assay with CD28-IKZF3 (eGFP fusion)) were 0.42 nM, 8.2 nM and 23.5 nM, respectively. In the case of B3, the binding result in assay [3] is “binds”. As for B4, in the assay with IKZF3aa130-189-HaloTag, the “apparent Kd (pomalidomide-dependent dimerization)” value was found to be 30 nM.
